Assay results taken from the supplement of paper PMC12042874.
± gives the uncertainty stated by the source.

Assay: amyloid nucleation score (Sup35N fusion, yeast selection) (log enrichment); library NNK3; higher = more nucleation; inactive = no reads after selection
Summary of the method: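 Nucleation score is defined as the DiMSum log enrichment of output over input reads, with centring on the mode score of non-aggregating sequences. A minimum of 100 input reads was required for each sequence. Reads came from Illumina sequencing of plasmid inserts from psi-negative yeast expressing Sup35N fused to peptides of 20 random codons, induced with 100 μM copper sulfate for 24 hours and grown 7 days at 30°C on medium lacking adenine and uracil.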

Substance: ITLLYALVLFFTWNVSG
- amyloid nucleation score: inactive

Substance: ITNYLWGGKGHRNKVLSNSC
- amyloid nucleation score: inactive

Substance: ITSCRWVALKYLWSVFSLLI
- amyloid nucleation score: inactive

Substance: ITSGFDVEKCGNVNLSWEVW
- amyloid nucleation score: inactive

Substance: ITTVRAYEALTWNMFWVQCV
- amyloid nucleation score: inactive

Substance: ITVCYMNKIWLK
- amyloid nucleation score: inactive

Substance: IVCMLQFEVVVLHACRFESK
- amyloid nucleation score: inactive

Substance: IVDGWR
- amyloid nucleation score: inactive

Substance: IVEHIFDRGVSLEVMMMCYR
- amyloid nucleation score: inactive

Substance: IVFMRLRMRVICPLCSVRLS
- amyloid nucleation score: 0.385 ± 0.2

Substance: IVGLDLCVHWQYLQVRLYII
- amyloid nucleation score: inactive

Substance: IVGYERATFVLRSYRFEKVS
- amyloid nucleation score: inactive

Substance: IVNLL
- amyloid nucleation score: inactive

Substance: IVTLNYQLMYKMPKLLWSSN
- amyloid nucleation score: inactive

Substance: IVWPIIRAHS
- amyloid nucleation score: -0.313 ± 0.93

Substance: IVYLRKPCYNW
- amyloid nucleation score: inactive

Substance: IWIGFPFLSSSGGPMYPL
- amyloid nucleation score: inactive

Substance: IWLTWTSEYCTIFGFVLPVV
- amyloid nucleation score: inactive

Substance: IWNLWFRTFCT
- amyloid nucleation score: 0.519 ± 0.25

Substance: IWPVESWLWHVLWYLVFKI
- amyloid nucleation score: 0.49 ± 0.17

Substance: IWPWSFALIMS
- amyloid nucleation score: inactive

Substance: IWTDDWFFVAVSDGKVSRLV
- amyloid nucleation score: inactive

Substance: IYALDNHGTCGRGHAFYNMV
- amyloid nucleation score: inactive

Substance: IYAQELLSVANLLRFL
- amyloid nucleation score: inactive

Substance: IYAVSCVCVGIYGTIRLTSG
- amyloid nucleation score: 0.017 ± 0.23

Substance: IYCKVVALKRFHWMEAYA
- amyloid nucleation score: inactive

Substance: IYEVVMVCISESLFLLMVKG
- amyloid nucleation score: inactive

Substance: IYKSQMLEFVEVVRSYMPVQ
- amyloid nucleation score: inactive

Substance: IYLLYNPCFRMRYLFCMLRG
- amyloid nucleation score: inactive

Substance: IYLMVFNCMFEVTFRLSVES
- amyloid nucleation score: inactive

Substance: IYMRRESGVLGEQ
- amyloid nucleation score: inactive

Substance: IYPLAKFSLHLVYTDRVSIF
- amyloid nucleation score: 0.352 ± 0.19

Substance: IYPLV
- amyloid nucleation score: inactive

Substance: IYSALYLYRTPKSVYQVTQS
- amyloid nucleation score: -0.575 ± 1

Substance: IYVQNSTANKR
- amyloid nucleation score: inactive

Substance: IYVRLMSFH
- amyloid nucleation score: 0.452 ± 0.15

Substance: IYVVACGSR
- amyloid nucleation score: inactive

Substance: IYYNHVVI
- amyloid nucleation score: inactive

Substance: IYYPHTFIWDFVDEGVAPHY
- amyloid nucleation score: 1.56 ± 0.12

Substance: KAGVRKRKAER
- amyloid nucleation score: inactive

Substance: KANDFTVFLRRVCLLNRVNA
- amyloid nucleation score: inactive

Substance: KAQAFLWPVPDIQ
- amyloid nucleation score: -0.571 ± 1.9

Substance: KCRVG
- amyloid nucleation score: inactive

Substance: KCSRDRWQIVKMFMRMTVAI
- amyloid nucleation score: inactive

Substance: KDELCH
- amyloid nucleation score: 1.81 ± 0.11

Substance: KDIFYVAGDR
- amyloid nucleation score: inactive

Substance: KDLDGVLFGNANWKIICEL
- amyloid nucleation score: inactive

Substance: KDMIYSHDKLKFQKKNKHMQ
- amyloid nucleation score: inactive

Substance: KDVRVWRLFRLD
- amyloid nucleation score: inactive

Substance: KDVYCRGVGG
- amyloid nucleation score: inactive

Substance: KEAVFIFSTHSGFLALFCMM
- amyloid nucleation score: inactive

Substance: KEDCGGQVNKTSGASVSSLC
- amyloid nucleation score: inactive

Substance: KEVMFR
- amyloid nucleation score: 1.64 ± 0.12

Substance: KFDGLYNSFTVMNFAIMVYE
- amyloid nucleation score: 1.65 ± 0.12

Substance: KFGEAWIIPRDRVMEVFEW
- amyloid nucleation score: inactive

Substance: KFTMTPWDPLCLCVRSDIDL
- amyloid nucleation score: inactive

Substance: KGAFEMRG
- amyloid nucleation score: -0.277 ± 1.1

Substance: KGFDRMMGVH
- amyloid nucleation score: inactive

Substance: KGFFFCRTYVSSFWTKIGIF
- amyloid nucleation score: inactive

Substance: KGFNSALLMWVLYINKQ
- amyloid nucleation score: inactive

Substance: KGLMVNRELMGSWSRPGCSY
- amyloid nucleation score: inactive

Substance: KGLVYSELNYYLLSWY
- amyloid nucleation score: inactive

Substance: KGPRSGLVYGSSDHVFLA
- amyloid nucleation score: inactive

Substance: KGQDCNVLNSNYESSIVGDL
- amyloid nucleation score: inactive

Substance: KGSSC
- amyloid nucleation score: inactive

Substance: KGSSSSIDTIFLYRGYFSIA
- amyloid nucleation score: inactive

Substance: KGVKYMDGH
- amyloid nucleation score: 0.303 ± 0.2

Substance: KGYSKCEDPMLECYYCTPVN
- amyloid nucleation score: inactive

Substance: KHILFE
- amyloid nucleation score: inactive

Substance: KHRWVQLLWCWYFTGSQYRI
- amyloid nucleation score: inactive

Substance: KHSDL
- amyloid nucleation score: inactive

Substance: KHVMLCCNFRKLHSATHKRT
- amyloid nucleation score: inactive

Substance: KICWYELNLDNSLVLLGRRY
- amyloid nucleation score: 1.78 ± 0.084

Substance: KILQDKKMFRGFRNGRRAGI
- amyloid nucleation score: inactive

Substance: KIVFSKSLGFLVFVMRYNQW
- amyloid nucleation score: inactive

Substance: KIYDVFSRFKYRMQSVYKQA
- amyloid nucleation score: inactive

Substance: KIYQYPVGRLGNCSGLHVWT
- amyloid nucleation score: inactive

Substance: KKASVLSHVTYNRMITAWNI
- amyloid nucleation score: inactive

Substance: KKGGVVINVSTNRIRTLTCP
- amyloid nucleation score: inactive

Substance: KKKAGLGRDWYWTVFLMVLS
- amyloid nucleation score: inactive

Substance: KKRSMD
- amyloid nucleation score: inactive

Substance: KKVNDML
- amyloid nucleation score: inactive

Substance: KLAVFYFVVLVFRGERISSC
- amyloid nucleation score: inactive

Substance: KLILKYCIRCQNGYDSARMS
- amyloid nucleation score: -0.291 ± 0.5

Substance: KLKPMPNWSRLSRDWVLCCS
- amyloid nucleation score: inactive

Substance: KLPSEISKNYT
- amyloid nucleation score: inactive

Substance: KLQNCVKTDLHA
- amyloid nucleation score: inactive

Substance: KLSGTLFFGSKGFVFPPYAF
- amyloid nucleation score: inactive

Substance: KLTPRFICVMCTCLIRL
- amyloid nucleation score: inactive

Substance: KLWKWNTGNSVVVLGLMSGV
- amyloid nucleation score: inactive

Substance: KLYELDAVMMAWVIMY
- amyloid nucleation score: inactive

Substance: KMDKFPV
- amyloid nucleation score: 0.391 ± 0.34

Substance: KMRFLIALNVTTWGPKLLCG
- amyloid nucleation score: inactive

Substance: KMRRVLLSLSVYMNCKSMVR
- amyloid nucleation score: inactive

Substance: KMVGVKK
- amyloid nucleation score: inactive

Substance: KNMHNPDRY
- amyloid nucleation score: inactive

Substance: KNTISCPCWYINRCLVYNNI
- amyloid nucleation score: 0.97 ± 0.17

Substance: KNTVSYSATLGKVSMSERRR
- amyloid nucleation score: inactive

Substance: KPASAGLVINAVGSGHSEMW
- amyloid nucleation score: inactive

Substance: KPCVTFSHSAIRISVTWSTN
- amyloid nucleation score: -0.079 ± 0.38

Substance: KPLSRSLRHSLCNRTAMIRF
- amyloid nucleation score: 0.672 ± 0.32

Substance: KPSFDPFKN
- amyloid nucleation score: inactive

Substance: KPTIDIKCFCSWVYLKVLRG
- amyloid nucleation score: inactive

Substance: KPVLVVVSNLIPWSYPE
- amyloid nucleation score: 2.25 ± 0.085

Substance: KQLLAKTALAYEAIRPPIPI
- amyloid nucleation score: inactive

Substance: KQSMRQSYSVPPEEVDKQGR
- amyloid nucleation score: inactive

Substance: KQSYCVWESNYRTMYLNVCR
- amyloid nucleation score: inactive

Substance: KQYLDLVAFIADGYRVSGDE
- amyloid nucleation score: inactive

Substance: KRCPWVRNKSVSYLTSKYKL
- amyloid nucleation score: inactive

Substance: KRFGFVNFNCYDLYIKFEIM
- amyloid nucleation score: 1.28 ± 0.13

Substance: KRLIVVIFKQWPARGCTTHC
- amyloid nucleation score: inactive

Substance: KRLVMWPRLRSRYWHKRAEQ
- amyloid nucleation score: inactive

Substance: KRSDVYVGKNCSEDMRFSNL
- amyloid nucleation score: inactive

Substance: KRSFGRVIRDIDEYRMVRVV
- amyloid nucleation score: inactive

Substance: KRVKSPNILEMVNYAQ
- amyloid nucleation score: -0.487 ± 0.9

Substance: KRWEPMACPDSNRDKLKECV
- amyloid nucleation score: inactive

Substance: KRWIAHASWSSTGTWFWSGG
- amyloid nucleation score: inactive

Substance: KRYAYAVVGGWVVGVRKHHG
- amyloid nucleation score: inactive

Substance: KSAWLRLCIVR
- amyloid nucleation score: inactive

Substance: KSCLCSSTKRKLNRLTYTDR
- amyloid nucleation score: inactive

Substance: KSDEVTFMWHSHGIRMFR
- amyloid nucleation score: 0.357 ± 0.4

Substance: KSHPINIRPFKYIPKMLASS
- amyloid nucleation score: inactive

Substance: KSHWTTM
- amyloid nucleation score: 1.64 ± 0.11

Substance: KSLKTRYSPSVYFDFYLHYG
- amyloid nucleation score: 1.07 ± 0.15

Substance: KSSSFSFVASCGHAVILQKK
- amyloid nucleation score: inactive

Substance: KSWVRGH
- amyloid nucleation score: inactive

Substance: KTACFLVNCLNYQRAERTLR
- amyloid nucleation score: 1.23 ± 0.18

Substance: KTFCVVDTR
- amyloid nucleation score: inactive

Substance: KTIGILLNCIGWFVVGLPGS
- amyloid nucleation score: 0.863 ± 0.21

Substance: KTKVTALCNIKGNNGHFPKH
- amyloid nucleation score: inactive

Substance: KTTTY
- amyloid nucleation score: -0.2 ± 0.54

Substance: KVCRAYWYYPNFTMSRT
- amyloid nucleation score: inactive

Substance: KVCVLVDMHSGHTVHWGLMC
- amyloid nucleation score: inactive

Substance: KVFWHDVILTCG
- amyloid nucleation score: inactive

Substance: KVIRESVKSLRHFKFAWLLS
- amyloid nucleation score: inactive

Substance: KVMNLVRFRTDFLESNMRWC
- amyloid nucleation score: 0.751 ± 0.17

Substance: KVSMPISHTQSLPVVTARCH
- amyloid nucleation score: inactive

Substance: KVVFFTALTEPWFSPQFQGL
- amyloid nucleation score: inactive

Substance: KVVIF
- amyloid nucleation score: inactive

Substance: KWVFWSIYVPFTCKFNMVNR
- amyloid nucleation score: inactive

Substance: KWWCHLWVIGVGFALGLYTG
- amyloid nucleation score: inactive

Substance: KYICET
- amyloid nucleation score: inactive

Substance: KYRFLSKSRMRGSACHGKDQ
- amyloid nucleation score: inactive

Substance: KYSYFFVRKTMLDCSFTEAW
- amyloid nucleation score: 0.771 ± 0.19

Substance: KYVSECK
- amyloid nucleation score: inactive

Substance: LAASVNYILRNIDCGVRMRF
- amyloid nucleation score: inactive

Substance: LADLLLCDLRDCRRSAVGRM
- amyloid nucleation score: inactive

Substance: LAFCIMNRQFLPLYLPTCSV
- amyloid nucleation score: inactive

Substance: LAFKSDLSFNETVRKSSWLC
- amyloid nucleation score: inactive

Substance: LANFHDITWWTWMTSHTGGS
- amyloid nucleation score: inactive

Substance: LANTSRTGIFMDSNTDSRN
- amyloid nucleation score: inactive

Substance: LAPFLFCRNNF
- amyloid nucleation score: inactive

Substance: LARGDYVMKDMVLAHINDLC
- amyloid nucleation score: inactive

Substance: LAVALIIRMSYLELGLLNPT
- amyloid nucleation score: inactive

Substance: LAYVLKDYFNCYGVIVVISL
- amyloid nucleation score: inactive

Substance: LAYYRPRQEWVPCNSVGLK
- amyloid nucleation score: inactive

Substance: LCATFMNYRVKIWSQLRY
- amyloid nucleation score: -0.426 ± 0.66

Substance: LCCGVCR
- amyloid nucleation score: inactive

Substance: LCFNCMS
- amyloid nucleation score: 2.74 ± 0.076

Substance: LCLMDRGYVS
- amyloid nucleation score: -0.779 ± 1.4
